From article PMC4860839, “Structures of the APC–ARM domain in complexes with discrete Amer1/WTX fragments reveal that it uses a consensus mode to recognize its binding partners” (Cell Discovery, 2015)
Each block holds one molecule with its values, some of them ahead of it.

B1: Amer1 (766–823, Δ778–794) (domain or fragment, human, UniProt Q5JTC6 766-823, looked up)
chain: TVSFSQALVEFTSFTQNLPELPPMVTFDIADVERDGEGKCE
notes: human Amer1/WTX residues 766–823 with residues 778–794 deleted; not shown: GST, N-terminal, kept
B2: Amer1-A4 peptide (residues 365–375) (peptide)
peptide: H-YQGGGEEMALP-OH
notes: human Amer1/WTX residues 365–375; also called hAmer1-A4 (365–375); source: synthetic peptide (Appeptide Company), HPLC purified
B3: GST-Amer1 (766–823), core A3 (domain or fragment, human, UniProt Q5JTC6 766-823, looked up)
chain: TVSFSQALVEFTSNGNLFSSMSCSSDSDSSFTQNLPELPPMVTFDIADVERDGEGKCE
notes: human Amer1/WTX residues 766–823; not shown: GST, N-terminal, kept
B4: Amer1-A2 peptide (residues 496–508) (peptide)
peptide: H-PRDSYSGDALYEF-OH
notes: human Amer1/WTX residues 496–508; also called hAmer1-A2 (496–508); source: synthetic peptide (Appeptide Company), HPLC purified
B5: GST-Amer1 (716–834), A3 (domain or fragment, human, UniProt Q5JTC6 716-834, looked up)
chain: TCLMQLFQSDAMFEPDMQEANFGGSPRRAYPTYSPPEDPEEEEVEKEGNATVSFSQALVEFTSNGNLFSSMSCSSDSDSSFTQNLPELPPMVTFDIADVERDGEGKCEENPEFHNDEDL
notes: human Amer1/WTX residues 716–834; The methods list only A3: 766–823 among the GST constructs; not shown: GST, N-terminal, kept
B6: APC–ARM, human APC (407–751), N-terminally His-tagged (domain or fragment, UniProt P25054 407-751, looked up)
chain: LHLLEQIRAYCETCWEWQEAHEPGMDQDKNPMPAPVEHQICPAVCVLMKLSFDEEHRHAMNELGGLQAIAELLQVDCEMYGLTNDHYSITLRRYAGMALTNLTFGDVANKATLCSMKGCMRALVAQLKSESEDLQQVIASVLRNLSWRADVNSKKTLREVGSVKALMECALEVKKESTLKSVLSALWNLSAHCTENKADICAVDGALAFLVGTLTYRSQTNTLAIIESGGGILRNVSSLIATNEDHRQILRENNCLQTLLQHLKSHSLTIVSNACGTLWNLSARNPKDQEALWDMGAVSMLKNLIHSKHKMIAMGSAAALRNLMANRPAKYKDANIMSPGSSLPS
notes: human APC, armadillo repeat (ARM) domain, residues 407–751; source: E. coli BL21(DE3), purified (Ni2+-NTA, Superdex200)
B7: GST-Amer1 (365–375), A4 (domain or fragment, human)
chain: YQGGGEEMALP
notes: human Amer1/WTX residues 365–375; also called Amer1-A4; not shown: GST, N-terminal, kept
B8: GST-Amer1 (325–335), core A1 (domain or fragment, human)
chain: LTGCGDIIAEQ
notes: human Amer1/WTX residues 325–335; The results call the ITC samples peptides; the ITC methods name GST-Amer1 proteins; also called Amer1-A1; not shown: GST, N-terminal, kept
B9: GST-Amer1 (496–508), core A2 (domain or fragment, human)
chain: PRDSYSGDALYEF
notes: human Amer1/WTX residues 496–508; The results call the ITC samples peptides; the ITC methods name GST-Amer1 proteins; also called Amer1-A2; not shown: GST, N-terminal, kept
B10: GST-Amer1 (380–531), full A2 (domain or fragment, human, UniProt Q5JTC6 380-531, looked up)
chain: EEEEEEEEVELEEEEEEVKEEEEDDDLEYLWETAQMYPRPNMNLGYHPTTSPGHHGYMLLDPVRSYPGLAPGELLTPQSDQQESAPNSDEGYYDSTTPGFEDDSGEALGLVRRDCLPRDSYSGDALYEFYEPDDSLENSPPGDDCLYDLHGR
notes: the methods print full A2: 400–531; also called full Amer1-A2; not shown: GST, N-terminal, kept
B11: GST-Amer1 (280–368), full A1 (domain or fragment, human, UniProt Q5JTC6 280-368, looked up)
chain: SLEEPHSPETGEKVVAGEVNPPNGPVGDPLSLLFGDVTSLKSFDSLTGCGDIIAEQDMDSMTDSMASGGQRANRDGTKRSSCLVTYQGG
notes: the methods print full A1: 280–364; also called full Amer1-A1; not shown: GST, N-terminal, kept
B12: APC–ARM, human APC (407–775), N-terminally His-tagged (domain or fragment, UniProt P25054 407-775, looked up)
chain: LHLLEQIRAYCETCWEWQEAHEPGMDQDKNPMPAPVEHQICPAVCVLMKLSFDEEHRHAMNELGGLQAIAELLQVDCEMYGLTNDHYSITLRRYAGMALTNLTFGDVANKATLCSMKGCMRALVAQLKSESEDLQQVIASVLRNLSWRADVNSKKTLREVGSVKALMECALEVKKESTLKSVLSALWNLSAHCTENKADICAVDGALAFLVGTLTYRSQTNTLAIIESGGGILRNVSSLIATNEDHRQILRENNCLQTLLQHLKSHSLTIVSNACGTLWNLSARNPKDQEALWDMGAVSMLKNLIHSKHKMIAMGSAAALRNLMANRPAKYKDANIMSPGSSLPSLHVRKQKALEAELDAQHLSETFDN
notes: human APC, ARM domain, residues 407–775; source: E. coli BL21(DE3), purified (Ni2+-NTA, Superdex200)
B13: Amer1-A1 peptide (residues 325–335) (peptide)
peptide: H-LTGCGDIIAEQ-OH
notes: human Amer1/WTX residues 325–335; also called hAmer1-A1 (325–335); source: synthetic peptide (Appeptide Company), HPLC purified

What was measured:
[1] = biological target: FL Amer1/WTX (pcDNA-Flag-Amer1) (not stated (human or mouse cDNA cloned)) (UniProt Q5JTC6); experiment: co-IP; HEK293T cells transiently transfected; immunoprecipitation with anti-GFP or anti-FLAG M2 beads, western blot
Chain of FL Amer1/WTX (pcDNA-Flag-Amer1) (not stated (human or mouse cDNA cloned)) (Q5JTC6 whole entry, the tested form may be a part): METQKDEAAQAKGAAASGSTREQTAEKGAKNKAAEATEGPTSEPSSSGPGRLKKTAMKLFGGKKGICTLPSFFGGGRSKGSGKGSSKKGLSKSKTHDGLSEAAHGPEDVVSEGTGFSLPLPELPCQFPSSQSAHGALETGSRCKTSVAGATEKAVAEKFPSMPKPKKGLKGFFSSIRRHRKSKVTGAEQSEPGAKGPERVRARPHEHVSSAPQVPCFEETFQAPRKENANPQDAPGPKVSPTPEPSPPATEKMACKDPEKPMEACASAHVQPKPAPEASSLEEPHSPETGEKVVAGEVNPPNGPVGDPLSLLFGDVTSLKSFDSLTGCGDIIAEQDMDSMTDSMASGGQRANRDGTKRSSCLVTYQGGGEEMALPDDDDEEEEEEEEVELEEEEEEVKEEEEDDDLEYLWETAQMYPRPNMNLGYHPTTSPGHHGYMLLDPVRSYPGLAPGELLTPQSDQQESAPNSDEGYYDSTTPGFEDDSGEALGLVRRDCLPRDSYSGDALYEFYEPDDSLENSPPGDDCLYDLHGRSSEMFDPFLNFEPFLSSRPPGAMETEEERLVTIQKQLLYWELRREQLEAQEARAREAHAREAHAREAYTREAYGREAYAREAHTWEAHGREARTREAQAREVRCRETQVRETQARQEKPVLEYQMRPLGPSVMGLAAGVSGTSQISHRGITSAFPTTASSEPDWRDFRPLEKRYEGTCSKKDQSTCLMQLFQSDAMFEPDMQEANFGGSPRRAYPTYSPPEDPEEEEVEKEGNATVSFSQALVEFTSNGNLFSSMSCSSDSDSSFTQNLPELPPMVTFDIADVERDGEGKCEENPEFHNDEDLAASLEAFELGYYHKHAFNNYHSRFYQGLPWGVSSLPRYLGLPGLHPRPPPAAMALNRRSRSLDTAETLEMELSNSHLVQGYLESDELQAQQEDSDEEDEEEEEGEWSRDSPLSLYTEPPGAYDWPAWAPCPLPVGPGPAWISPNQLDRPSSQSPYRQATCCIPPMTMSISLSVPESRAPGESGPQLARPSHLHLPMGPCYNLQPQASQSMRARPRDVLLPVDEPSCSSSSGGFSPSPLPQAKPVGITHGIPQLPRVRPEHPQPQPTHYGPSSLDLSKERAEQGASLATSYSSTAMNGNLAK

[2] = biological target: B12; experiment: ITC; ITC200, 25 °C; 50 mM HEPES pH 7.5, 300 mM NaCl, 1 mM EDTA; typically 200 μM APC–ARM injected into 20 μM GST-Amer1 fragment, or 1 mM GST-Amer1 fragment into 80 μM APC–ARM; single-site model; conditions: both partners purified
[3] = biological target: B6; experiment: crystal structure; APC–ARM mixed with synthetic Amer1 peptide at 1:1.5; hanging drop, 14 °C; conditions: both partners purified
[4] = biological target: B8; experiment: ITC; ITC200, 25 °C; 50 mM HEPES pH 7.5, 300 mM NaCl, 1 mM EDTA; typically 200 μM APC–ARM injected into 20 μM GST-Amer1 fragment, or 1 mM GST-Amer1 fragment into 80 μM APC–ARM; single-site model; conditions: both partners purified
[5] = biological target: B9; experiment: as above; conditions: both partners purified
[6] = biological target: B11; experiment: as above; conditions: both partners purified
[7] = biological target: B10; experiment: as above; conditions: both partners purified
GST-Amer1 (365–375), A4 = biological target: B7; experiment: as above; conditions: both partners purified
[8] = biological target: B6; experiment: as above; conditions: both partners purified
[9] = biological target: B3; experiment: as above; conditions: both partners purified
GST-Amer1 (716–834), A3 = biological target: B5; experiment: as above; conditions: both partners purified
[10] = biological target: B1; experiment: as above; conditions: both partners purified

- reduction of association against wild type APC–ARM (densitometry) [1]: 60%
Molecule: pEGFP-APC–ARM-K516E/M717K double mutant (domain or fragment)

Molecule: B1
- Kd [2]: 220 ± 110 nM

Molecule: B2
- binding result [3]: binds

Molecule: B3
- Kd [2]: 270 ± 70 nM

Molecule: B4
- binding result [3]: binds

Molecule: B5
- Kd [2]: 130 ± 60 nM

Molecule: B6
- dH [4]: -0.9 ± 0.1 kcal/mol
- stoichiometry N [4]: 0.9 ± 0.08 Amer1/APC ratio
- dH [5]: -5.2 ± 0.2 kcal/mol
- stoichiometry N [5]: 1.08 ± 0.02 Amer1/APC ratio
- dH [6]: -1.12 ± 0.55 kcal/mol
- stoichiometry N [6]: 0.97 ± 0.39 Amer1/APC ratio
- dH [7]: -3.5 ± 0.1 kcal/mol
- stoichiometry N [7]: 0.92 ± 0.02 Amer1/APC ratio
- dH (GST-Amer1 (365–375), A4): -3.5 ± 0.1 kcal/mol
- stoichiometry N (GST-Amer1 (365–375), A4): 0.95 ± 0.02 Amer1/APC ratio

Molecule: B7
- Kd [8]: 2000 ± 300 nM

Molecule: B8
- Kd [8]: 14400 ± 4300 nM

Molecule: B9
- Kd [8]: 1100 ± 200 nM

Molecule: B10
- Kd [8]: 500 ± 100 nM

Molecule: B11
- Kd [8]: 8000 ± 4100 nM

Molecule: B12
- dH [9]: -1.82 ± 0.04 kcal/mol
- stoichiometry N [9]: 1 ± 0.02 Amer1/APC ratio
- dH (GST-Amer1 (716–834), A3): -1.82 ± 0.06 kcal/mol
- stoichiometry N (GST-Amer1 (716–834), A3): 0.99 ± 0.02 Amer1/APC ratio
- dH [10]: -1.39 ± 0.06 kcal/mol
- stoichiometry N [10]: 1.02 ± 0.03 Amer1/APC ratio

Molecule: B13
- binding result [3]: binds
